# No end group written: not given here. *: point of attachment. Farnesyl = CC(C)=CCC/C(C)=C/CC/C(C)=C/C*
# T1: human aryl hydrocarbon receptor-interacting protein-like 1 (hAIPL1), full length, His6-tagged (human, UniProt Q9NZN9 1-384)
# T1 sequence (looked up): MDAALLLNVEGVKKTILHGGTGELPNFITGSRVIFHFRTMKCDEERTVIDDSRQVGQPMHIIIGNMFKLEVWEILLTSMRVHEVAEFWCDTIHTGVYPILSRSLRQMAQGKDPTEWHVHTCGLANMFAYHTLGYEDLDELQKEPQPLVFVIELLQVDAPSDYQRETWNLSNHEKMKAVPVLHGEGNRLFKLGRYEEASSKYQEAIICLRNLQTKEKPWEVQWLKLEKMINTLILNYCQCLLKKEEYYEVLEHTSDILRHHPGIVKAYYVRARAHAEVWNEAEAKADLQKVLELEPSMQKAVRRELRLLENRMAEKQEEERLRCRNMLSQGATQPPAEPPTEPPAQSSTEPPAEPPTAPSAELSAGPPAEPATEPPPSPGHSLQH
# T2: hAIPL1 R302L mutant, His6-tagged (human, UniProt Q9NZN9 1-384, R302L)
# T2 sequence (looked up): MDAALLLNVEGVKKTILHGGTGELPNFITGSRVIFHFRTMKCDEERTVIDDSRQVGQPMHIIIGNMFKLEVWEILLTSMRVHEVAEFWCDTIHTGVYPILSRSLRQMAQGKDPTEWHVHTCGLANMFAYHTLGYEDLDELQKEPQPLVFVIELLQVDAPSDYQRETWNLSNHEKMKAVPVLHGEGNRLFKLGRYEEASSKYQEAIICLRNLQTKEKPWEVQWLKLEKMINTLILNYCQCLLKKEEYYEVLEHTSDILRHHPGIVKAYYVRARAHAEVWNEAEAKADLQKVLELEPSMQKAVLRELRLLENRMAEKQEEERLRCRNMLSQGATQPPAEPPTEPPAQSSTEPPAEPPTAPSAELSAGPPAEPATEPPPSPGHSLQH
# T3: hAIPL1 P376S mutant, His6-tagged (human, UniProt Q9NZN9 1-384, P376S)
# T3 sequence (looked up): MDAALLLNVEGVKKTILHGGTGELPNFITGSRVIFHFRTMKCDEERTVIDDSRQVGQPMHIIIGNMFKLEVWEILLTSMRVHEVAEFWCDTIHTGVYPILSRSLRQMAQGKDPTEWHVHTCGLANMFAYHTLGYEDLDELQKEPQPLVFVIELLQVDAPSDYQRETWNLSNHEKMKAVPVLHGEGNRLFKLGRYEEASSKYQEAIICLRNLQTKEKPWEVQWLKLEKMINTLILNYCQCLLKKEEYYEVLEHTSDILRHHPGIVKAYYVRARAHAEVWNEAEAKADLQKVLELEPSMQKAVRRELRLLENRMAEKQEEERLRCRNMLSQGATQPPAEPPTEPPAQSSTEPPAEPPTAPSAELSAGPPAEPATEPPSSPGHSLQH
# T4: hAIPL1 1–316 lacking the proline-rich domain, His6-tagged (human, UniProt Q9NZN9 1-316)
# T4 sequence (looked up): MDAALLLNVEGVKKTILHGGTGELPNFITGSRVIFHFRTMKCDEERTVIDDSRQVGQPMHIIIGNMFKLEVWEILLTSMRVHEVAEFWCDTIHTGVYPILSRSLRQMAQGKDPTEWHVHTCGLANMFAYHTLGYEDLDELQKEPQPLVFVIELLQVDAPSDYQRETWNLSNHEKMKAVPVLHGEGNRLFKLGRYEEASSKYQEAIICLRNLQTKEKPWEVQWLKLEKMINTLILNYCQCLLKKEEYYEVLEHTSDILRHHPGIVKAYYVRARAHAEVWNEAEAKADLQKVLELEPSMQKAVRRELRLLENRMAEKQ
# B1: human aryl hydrocarbon receptor-interacting protein-like 1 (hAIPL1), full length, His6-tagged (natural protein)
# chain: MDAALLLNVEGVKKTILHGGTGELPNFITGSRVIFHFRTMKCDEERTVIDDSRQVGQPMHIIIGNMFKLEVWEILLTSMRVHEVAEFWCDTIHTGVYPILSRSLRQMAQGKDPTEWHVHTCGLANMFAYHTLGYEDLDELQKEPQPLVFVIELLQVDAPSDYQRETWNLSNHEKMKAVPVLHGEGNRLFKLGRYEEASSKYQEAIICLRNLQTKEKPWEVQWLKLEKMINTLILNYCQCLLKKEEYYEVLEHTSDILRHHPGIVKAYYVRARAHAEVWNEAEAKADLQKVLELEPSMQKAVRRELRLLENRMAEKQEEERLRCRNMLSQGATQPPAEPPTEPPAQSSTEPPAEPPTAPSAELSAGPPAEPATEPPPSPGHSLQH
# B2: hAIPL1 R302L mutant, His6-tagged (natural protein)
# chain: MDAALLLNVEGVKKTILHGGTGELPNFITGSRVIFHFRTMKCDEERTVIDDSRQVGQPMHIIIGNMFKLEVWEILLTSMRVHEVAEFWCDTIHTGVYPILSRSLRQMAQGKDPTEWHVHTCGLANMFAYHTLGYEDLDELQKEPQPLVFVIELLQVDAPSDYQRETWNLSNHEKMKAVPVLHGEGNRLFKLGRYEEASSKYQEAIICLRNLQTKEKPWEVQWLKLEKMINTLILNYCQCLLKKEEYYEVLEHTSDILRHHPGIVKAYYVRARAHAEVWNEAEAKADLQKVLELEPSMQKAVLRELRLLENRMAEKQEEERLRCRNMLSQGATQPPAEPPTEPPAQSSTEPPAEPPTAPSAELSAGPPAEPATEPPPSPGHSLQH
# B3: hAIPL1 P376S mutant, His6-tagged (natural protein)
# chain: MDAALLLNVEGVKKTILHGGTGELPNFITGSRVIFHFRTMKCDEERTVIDDSRQVGQPMHIIIGNMFKLEVWEILLTSMRVHEVAEFWCDTIHTGVYPILSRSLRQMAQGKDPTEWHVHTCGLANMFAYHTLGYEDLDELQKEPQPLVFVIELLQVDAPSDYQRETWNLSNHEKMKAVPVLHGEGNRLFKLGRYEEASSKYQEAIICLRNLQTKEKPWEVQWLKLEKMINTLILNYCQCLLKKEEYYEVLEHTSDILRHHPGIVKAYYVRARAHAEVWNEAEAKADLQKVLELEPSMQKAVRRELRLLENRMAEKQEEERLRCRNMLSQGATQPPAEPPTEPPAQSSTEPPAEPPTAPSAELSAGPPAEPATEPPSSPGHSLQH
# B4: PDE6 γ-subunit with a single Cys at position 68, labeled with 3-(bromo acetyl)-7-diethyl aminocoumarine (natural protein, UniProt P04972 1-87, looked up)
# chain: MNLEPPKAEIRSATRVMGGPVTPRKGPPKFKQRQTRQFKSKPPKKGVQGFGDDIPGMEGLGTDITVICPWEAFNHLELHELAQYGII
# modifications: 3-(bromo acetyl)-7-diethyl aminocoumarine (BC) on Cys68
# B5: hAIPL1 1–316 lacking the proline-rich domain, His6-tagged (domain or fragment)
# chain: MDAALLLNVEGVKKTILHGGTGELPNFITGSRVIFHFRTMKCDEERTVIDDSRQVGQPMHIIIGNMFKLEVWEILLTSMRVHEVAEFWCDTIHTGVYPILSRSLRQMAQGKDPTEWHVHTCGLANMFAYHTLGYEDLDELQKEPQPLVFVIELLQVDAPSDYQRETWNLSNHEKMKAVPVLHGEGNRLFKLGRYEEASSKYQEAIICLRNLQTKEKPWEVQWLKLEKMINTLILNYCQCLLKKEEYYEVLEHTSDILRHHPGIVKAYYVRARAHAEVWNEAEAKADLQKVLELEPSMQKAVRRELRLLENRMAEKQ
# Experiments:
# [1] = target: FITC-labeled C-terminal peptide of HSP90a; test: fluorescence polarisation
# [2] = target: AMCA-labeled C-terminal peptide of mouse PDE6A, S-farnesylated and carboxymethylated (mouse); test: FRET or BRET
# [3] = target: PDE6 γ-subunit with a single Cys at position 35, labeled with 3-(bromo acetyl)-7-diethyl aminocoumarine (UniProt P04972); test: other fluorescence titration
# [4] = target: T1, human aryl hydrocarbon …; test: FRET or BRET
# [5] = target: T2, hAIPL1 R302L mutant, His6-tagged; test: FRET or BRET
# [6] = target: T3, hAIPL1 P376S mutant, His6-tagged; test: FRET or BRET
# [7] = target: T4, hAIPL1 1–316 lacking the proline-rich …; test: FRET or BRET
# [8] = target: T1, human aryl hydrocarbon …; test: other fluorescence titration
Molecule,Kd [1] [nM],Kd [3] [nM],further results
"hAIPL1 P351∆12 mutant, His6-tagged (from UniProt Q9NZN9 1-384) (natural protein)",32800,1380,Kd [2]: 140 nM
B1,20800,990,
B2,27200,810,
B3,23000,950,
"GAPASKSC(Farnesyl) (also: Cys carboxymethylated, AMCA-X conjugated) [AMCA-labeled C-terminal peptide of mouse PDE6A, S-farnesylated and carboxymethylated]",,,Kd [4]: 110 nM; Kd [5]: 160 nM; Kd [6]: 200 nM; Kd [7]: 240 nM
B4,,,Kd [8]: 2500 nM
B5,20800,730,

# From publication PMC6309207 (Journal of neurochemistry, 2015)
